The target of experiment [1] is HLA-A*33:01. Briefly: IEDB peptide-MHC binding, purified MHC/competitive/radioactivity; filed as Kd, often an IC50 or EC50 that approximates it; ≥ and ≤ were set here for values at or beyond the usual limits of such assays.
Experiment [2] concerns the target HLA-B*54:01. The description is as above.
The target in experiment [3] is HLA-A*11:01. The description is as above.
The target of experiment [4] is HLA-B*51:01. The description is as above.
For experiment [5], the target named is HLA-B*35:01. The description is as above.
Experiment [6] has as its target HLA-B*53:01. The experiment is described as above.
Experiment [7] has as its target HLA-A*31:01. Described as above.
Experiment [8] addresses HLA-A*03:01. Described as above.
In experiment [9] the target is HLA-B*07:02. The description is as above.
Experiment [10] has as its target HLA-A*68:01. The description is as above.
Experiment [11] deals with HLA-B*48:01. Briefly: IEDB peptide-MHC binding, purified MHC/direct/fluorescence; filed as Kd, often an IC50 or EC50 that approximates it; ≥ and ≤ were set here for values at or beyond the usual limits of such assays.
Experiment [12] deals with HLA-A*02:06. Nature of the experiment: IEDB peptide-MHC binding, purified MHC/competitive/radioactivity; filed as Kd, often an IC50 or EC50 that approximates it; ≥ and ≤ were set here for values at or beyond the usual limits of such assays.
Experiment [13] deals with HLA-B*46:01. Nature of the experiment: IEDB peptide-MHC binding, purified MHC/competitive/fluorescence; filed as Kd, often an IC50 or EC50 that approximates it; ≥ and ≤ were set here for values at or beyond the usual limits of such assays. As to conditions: source organism: Homo sapiens.
Experiment [14] addresses HLA-B*51:01. The description is as above. To be noted: source organism: Homo sapiens.
The target of experiment [15] is HLA-B*57:01. The experiment is described as above. As to conditions: source organism: Homo sapiens.
The target in experiment [16] is HLA-A*26:01. The description is as above. As to conditions: source organism: Homo sapiens.
Experiment [17] has as its target HLA-B*27:03. The experiment is described as above. As to conditions: source organism: Homo sapiens.
For experiment [18], the target named is HLA-A*69:01. Described as above. As to conditions: source organism: Homo sapiens.
The target of experiment [19] is HLA-B*18:01. The description is as above. As to conditions: source organism: Homo sapiens.
In experiment [20] the target is HLA-A*02:01. Nature of the experiment: IEDB peptide-MHC binding, purified MHC/direct/fluorescence; filed as Kd, often an IC50 or EC50 that approximates it; ≥ and ≤ were set here for values at or beyond the usual limits of such assays.
The target in experiment [21] is HLA-A*02:02. Briefly: IEDB peptide-MHC binding, purified MHC/competitive/radioactivity; filed as Kd, often an IC50 or EC50 that approximates it; ≥ and ≤ were set here for values at or beyond the usual limits of such assays. To be noted: source organism: Vaccinia virus WR.
Experiment [22] has as its target HLA-A*02:03. The description is as above. To be noted: source organism: Vaccinia virus WR.
Experiment [23] has as its target HLA-A*68:02. The experiment is described as above. As to conditions: source organism: Vaccinia virus WR.
Experiment [24] deals with HLA-B*15:01. Nature of the experiment: IEDB peptide-MHC binding, purified MHC/competitive/fluorescence; filed as Kd, often an IC50 or EC50 that approximates it; ≥ and ≤ were set here for values at or beyond the usual limits of such assays. As to conditions: source organism: Homo sapiens.
Experiment [25] addresses HLA-A*02:01. Nature of the experiment: IEDB peptide-MHC binding, purified MHC/competitive/radioactivity; filed as Kd, often an IC50 or EC50 that approximates it; ≥ and ≤ were set here for values at or beyond the usual limits of such assays. As to conditions: source organism: Vaccinia virus WR.
In experiment [26] the target is HLA-A*01:01. Nature of the experiment: IEDB peptide-MHC binding, purified MHC/direct/fluorescence; filed as Kd, often an IC50 or EC50 that approximates it; ≥ and ≤ were set here for values at or beyond the usual limits of such assays. To be noted: source organism: Mammarenavirus juninense.
For experiment [27], the target named is HLA-B*40:01. The experiment is described as above. As to conditions: source organism: Mammarenavirus juninense.
Experiment [28] has as its target HLA-B*46:01. The experiment is described as above. To be noted: source organism: Mammarenavirus juninense.
The target of experiment [29] is HLA-A*11:01. Described as above. To be noted: source organism: Mammarenavirus juninense.
Experiment [30] addresses HLA-B*58:01. The description is as above. To be noted: source organism: Mammarenavirus juninense.
In experiment [31] the target is HLA-B*27:05. Described as above. To be noted: source organism: Mammarenavirus juninense.
The target of experiment [32] is HLA-B*57:01. The experiment is described as above. To be noted: source organism: Mammarenavirus juninense.
The target of experiment [33] is HLA-B*08:01. The description is as above. To be noted: source organism: Mammarenavirus juninense.
For experiment [34], the target named is HLA-B*44:02. Described as above. To be noted: source organism: Mammarenavirus juninense.
Experiment [35] has as its target HLA-A*31:01. The experiment is described as above. To be noted: source organism: Mammarenavirus juninense.
Experiment [36] concerns the target HLA-A*03:01. Described as above. As to conditions: source organism: Mammarenavirus juninense.
Experiment [37] addresses HLA-B*07:02. The description is as above. As to conditions: source organism: Mammarenavirus juninense.
The mark [38] stands for this setting: source organism: Vaccinia virus Copenhagen.
Setting [39] is: source organism: Vaccinia virus WR.

Bounds are passed on as bounds.

One may read the Kd as the concentration at which binding is half-saturated. FILGIIITV: the dissociation constant (Kd) was 4.51 µM in experiment [1] (setting [38]); 3.34 µM in experiment [2] (setting [38]); 19.6 µM in experiment [3] (setting [38]); ≥ 68.4 µM in [4] (setting [38]); ≥ 39.6 µM in experiment [5] (setting [38]); 5.54 µM in experiment [6] (setting [38]). For the same sequence, the Kd in experiment [7] (setting [38]) is 1.17 µM; in experiment [8] (setting [38]), 1.5 µM; in [9] (setting [38]) it was ≥ 32.7 µM; in [10] (setting [38]) it was 3.21 µM.
Turning to KQIAEHATI, the equilibrium dissociation constant (Kd) in [11] (source organism: Bacillus thuringiensis) was found to be 0.351 µM.
For KQLGQVMLL, the dissociation constant (Kd) was 0.00517 µM in experiment [12] (source organism: Dengue virus 2 Jamaica/1409/1983) and 0.0062 µM in [11] (source organism: dengue virus type 2).
As to KQMEDGHTL, the Kd in [13], in experiment [14], in experiment [15], in experiment [16], in experiment [17] and in [18] was ≥ 20 µM in each case. The figures for the Kd in experiment [19] and in experiment [20] (source organism: Rattus norvegicus) were ≥ 20 µM and 0.0048 µM, respectively.
Take LMIFISSFLL: the dissociation constant (Kd) worked out at 0.707 µM in experiment [1] (setting [39]); 0.00293 µM in experiment [21]; 3.24 µM in [2] (setting [39]); 0.0801 µM in experiment [22]; 0.0764 µM in experiment [12] (setting [39]); 1.21 µM in experiment [3] (setting [39]). Besides, the Kd in experiment [4] (setting [39]) is 1.6 µM; in experiment [23], 0.0733 µM; in experiment [5] (setting [39]), ≥ 20.9 µM; in [6] (setting [39]), 0.971 µM; in experiment [7] (setting [39]) it was 0.284 µM; in experiment [8] (setting [39]), 0.42 µM. Also, the Kd in experiment [9] (setting [39]) is ≥ 27.2 µM; in experiment [10] (setting [39]), 0.283 µM.
With LVKSAWLSL, the dissociation constant Kd in experiment [14], in experiment [16], in experiment [24] and in experiment [18] was ≥ 20 µM in each case.
As for SFSLESDSIK, the Kd is ≥ 70 µM in [1] (setting [39]); ≥ 70 µM in experiment [21]; ≥ 69.9 µM in [2] (setting [39]); ≥ 70.4 µM in experiment [22]; ≥ 59.7 µM in experiment [12] (setting [39]); 5.91 µM in experiment [3] (setting [39]). For the same sequence, the Kd in experiment [4] (setting [39]) is ≥ 69.6 µM; in experiment [23], ≥ 69.8 µM; in [25], ≥ 69.4 µM; in [5] (setting [39]), ≥ 69.9 µM; in experiment [6] (setting [39]) it was ≥ 69.9 µM; in experiment [7] (setting [39]) it was 2.66 µM. In addition, the results for the dissociation constant Kd in [8] (setting [39]), in experiment [9] (setting [39]) and in experiment [10] (setting [39]) were ≥ 22 µM, ≥ 69.6 µM and 7.76 µM, respectively.
For SRLLMRRMR, in experiment [11] (source organism: Yellow fever virus), the equilibrium dissociation constant (Kd) is ≥ 20 µM.
TFFSYLMKDK: the equilibrium dissociation constant (Kd) is 2.69 µM in experiment [1] (setting [39]); ≥ 50.3 µM in experiment [21]; ≥ 69.9 µM in experiment [2] (setting [39]); ≥ 70.4 µM in experiment [22]; ≥ 69.8 µM in experiment [12] (setting [39]); 0.0128 µM in experiment [3] (setting [39]). Also, the dissociation constant Kd in [4] (setting [39]) is ≥ 69.6 µM; in experiment [23], ≥ 69.8 µM; in experiment [25], ≥ 69.4 µM; in experiment [5] (setting [39]), ≥ 69.9 µM; in [6] (setting [39]), ≥ 24.2 µM; in experiment [7] (setting [39]), 0.56 µM. Moreover, the results for the dissociation constant (Kd) in experiment [8] (setting [39]), in experiment [9] (setting [39]) and in [10] (setting [39]) were 1.6 µM, 16.2 µM and 0.0959 µM, respectively.
YAKKFKTGM: the dissociation constant Kd in experiment [26], in [27], in [28], in experiment [29], in [30] and in [31] was ≥ 20 µM each time. For the same sequence, the Kd was ≥ 20 µM in experiment [32]; 0.417 µM in experiment [33]; ≥ 20 µM in experiment [34]; ≥ 20 µM in experiment [20] (source organism: Mammarenavirus juninense); ≥ 20 µM in experiment [35]; ≥ 20 µM in experiment [36]. The Kd in [37] is ≥ 20 µM.

The values are drawn from the Immune Epitope Database (IEDB).
